The supplement of paper PMC7877785
± gives the uncertainty stated by the source.

Test: self-splicing fitness, log relative to wild type (ln ratio); higher = more splicing; Tetrahymena group I intron in knt gene, E. coli kanamycin selection, DiMSum; sequences stand for … in CUCUCU…GGAGGGAAAAGUUAUCAGGCAUGCACCUGGUAGCUAGUCUUUAAACCAAUAGAUUGCAUCGGUUUAAAAGGCAAGACCGUCAAAUUGCGGGAAAGGGGUCAACAGCCGUUCAGUACCAAGUCUCAGGGGAAACUUUGAGAUGGCCUUGCAAAGGGUAUGGUAAUAAGCUGACGGACAUGGUCCUAACCACGCAGCCAAGUCCUAAGUCAACAGAUCUUCUGUUGAUAUGGAUGCAGUUCACAGACUAAAUGUCGGUCGGGGAAGAUGUAUUCUUCUCAUAAGAUAUAGUCGGACCUCUCCUUAAUGGGAGCUAGCGGAUGAAGUGAUGCAACACUGGAGCCGCUGGGAACUAAUUUGUAUGCGAAAGUAUAUUGAUUAGUUUUGGAGUACUCGUGGUCG
Outline: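 Colonies from six replicate transformations of E. coli BL21(DE3) were pooled and amplicon-sequenced on an Illumina HiSeq 2500. The library placed an intron with all eight P1ex-region nucleotides randomised inside the knt kanamycin-resistance gene on pET-22b(+), and cells grew overnight at 37°C or 30°C on LB agar with or without 25 μg/mL kanamycin (plus 100 μg/mL carbenicillin, 50 μM IPTG, 0.2% rhamnose). Fitness is the DiMSum error-weighted combination of wild-type-normalised replicate fold changes, kanamycin versus none.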

Sequence	self-splicing fitness (ln) (30 °C)	self-splicing fitness (ln) (37 °C)
UUGCAGCAAUAUUACGGUCA	0.208 ± 0.12	0.556 ± 0.11
UUGCAGCAAUAUUACGGUUG	-3.07 ± 0.15	-2.04 ± 0.15
UUGCAGCAAUAUUACGGUUU	-1.37 ± 0.085	-0.603 ± 0.085
UUGCAGCAAUAUUACGUCCA	-0.493 ± 0.1	0.00855 ± 0.088
UUGCAGCAAUAUUACGUCCU	-0.816 ± 0.14	-0.682 ± 0.18
UUGCAGCAAUAUUACGUCGU	-1.8 ± 0.16	-1.17 ± 0.2
UUGCAGCAAUAUUACGUCUA	-0.361 ± 0.11	-0.0705 ± 0.11
UUGCAGCAAUAUUACGUUGA	-1.61 ± 0.12	-1.24 ± 0.12
UUGGAGCAAUAUUACGAAAG	-2.5 ± 0.33	-2.08 ± 0.37
UUGGAGCAAUAUUACGACCU	-2.97 ± 0.32	-0.7 ± 0.38
UUGGAGCAAUAUUACGAGCA	-3.18 ± 0.37	-1.74 ± 0.31
UUGGAGCAAUAUUACGAGUG	-4.05 ± 0.33	-3.04 ± 0.24
UUGGAGCAAUAUUACGCGUU	-2.97 ± 0.47	-2.47 ± 0.34
UUGGAGCAAUAUUACGGACA	-2.52 ± 0.49	-1.91 ± 0.18
UUGGAGCAAUAUUACGGUGA	-1.27 ± 0.22	-1.36 ± 0.14
UUGGAGCAAUAUUACGUCUA	-1.99 ± 0.34	-2.49 ± 0.3
UUGGAGCAAUAUUACGUGUC	-3.26 ± 0.22	-2.77 ± 0.38
UUGUAGCAAUAUUACGAAUA	-1.74 ± 0.15	-1.64 ± 0.14
UUGUAGCAAUAUUACGAAUC	-3.06 ± 0.14	-2.76 ± 0.24
UUGUAGCAAUAUUACGAGGU	-2.82 ± 0.2	-2.61 ± 0.36
UUGUAGCAAUAUUACGAUUG	-2.16 ± 0.15	-1.42 ± 0.2
UUGUAGCAAUAUUACGCAAA	-2.73 ± 0.35	-1.05 ± 0.26
UUGUAGCAAUAUUACGGGCG	-1.05 ± 0.14	0.346 ± 0.2
UUGUAGCAAUAUUACGUAAU	-2.9 ± 0.22	-2.37 ± 0.24
UUGUAGCAAUAUUACGUAUG	-1.99 ± 0.14	-1.42 ± 0.16

Sequence	self-splicing fitness (ln) (30 °C)	self-splicing fitness (ln) (37 °C)
UUGUAGCAAUAUUACGUCGU	-3.78 ± 0.26	-2.44 ± 0.2
UUGUAGCAAUAUUACGUUAU	-2.7 ± 0.41	-2.1 ± 0.25
UUGUAGCAAUAUUACGUUCA	-1.07 ± 0.11	-0.717 ± 0.13
UUGUAGCAAUAUUACGUUGU	-3.77 ± 0.27	-2.81 ± 0.24
UUGUAGCAAUAUUACGUUUG	-1.83 ± 0.15	-1.87 ± 0.2
UUUAAGCAAUAUUACGAAAC		-1.01 ± 0.39
UUUAAGCAAUAUUACGAACA	-0.6 ± 0.17	-0.353 ± 0.19
UUUAAGCAAUAUUACGAAUG	-1.54 ± 0.13	-0.41 ± 0.15
UUUAAGCAAUAUUACGAAUU	-1.6 ± 0.17	-1.58 ± 0.2
UUUAAGCAAUAUUACGACUC	-0.391 ± 0.24	-0.881 ± 0.4
UUUAAGCAAUAUUACGAGUA	-1.72 ± 0.19	-1.06 ± 0.19
UUUAAGCAAUAUUACGAUCG	-0.416 ± 0.12	0.237 ± 0.17
UUUAAGCAAUAUUACGCAUA	-3.17 ± 0.2	-0.829 ± 0.14
UUUAAGCAAUAUUACGCGUA	-1.4 ± 0.14	-0.828 ± 0.13
UUUAAGCAAUAUUACGCUUG	-3.29 ± 0.23	-1.4 ± 0.26
UUUAAGCAAUAUUACGGCGU	-1.29 ± 0.27	-0.169 ± 0.34
UUUAAGCAAUAUUACGGGGC	-2.77 ± 0.3	-3.55 ± 0.3
UUUAAGCAAUAUUACGGGUU	-2.83 ± 0.3	-1.67 ± 0.22
UUUAAGCAAUAUUACGGUAC	-2.22 ± 0.28	
UUUAAGCAAUAUUACGGUAU	-3.05 ± 0.17	-0.94 ± 0.17
UUUAAGCAAUAUUACGUAAG	-0.0425 ± 0.074	0.296 ± 0.094
UUUAAGCAAUAUUACGUACG	-0.346 ± 0.16	0.322 ± 0.17
UUUAAGCAAUAUUACGUAUC		-1.84 ± 0.33
UUUAAGCAAUAUUACGUCUG	-0.513 ± 0.1	-0.114 ± 0.12
UUUAAGCAAUAUUACGUGGA	-1.99 ± 0.18	-1.56 ± 0.2

Sequence	self-splicing fitness (ln) (30 °C)	self-splicing fitness (ln) (37 °C)
UUUAAGCAAUAUUACGUUCG	-0.639 ± 0.093	-0.169 ± 0.12
UUUCAGCAAUAUUACGACAU	-1.41 ± 0.015	-0.565 ± 0.033
UUUCAGCAAUAUUACGACCG	0.263 ± 0.18	-0.377 ± 0.29
UUUCAGCAAUAUUACGAGGU	-3.53 ± 0.2	-2.78 ± 0.24
UUUCAGCAAUAUUACGAUCG	-0.997 ± 0.099	-0.152 ± 0.14
UUUCAGCAAUAUUACGAUUG	-0.724 ± 0.087	-0.057 ± 0.11
UUUCAGCAAUAUUACGCACU	-0.429 ± 0.077	-0.09 ± 0.092
UUUCAGCAAUAUUACGCGAU	-3.39 ± 0.15	-2.47 ± 0.16
UUUCAGCAAUAUUACGCGCU	-3.54 ± 0.5	
UUUCAGCAAUAUUACGCGGC	-2.67 ± 0.25	-1.74 ± 0.27
UUUCAGCAAUAUUACGCGGG	-2.27 ± 0.12	-2.35 ± 0.15
UUUCAGCAAUAUUACGGAAG	-1.69 ± 0.12	-0.536 ± 0.19
UUUCAGCAAUAUUACGGAUC	-1.14 ± 0.07	-0.289 ± 0.089
UUUCAGCAAUAUUACGGGAG	-0.794 ± 0.07	-0.0774 ± 0.1
UUUCAGCAAUAUUACGGGGA	-2.43 ± 0.24	-0.33 ± 0.16
UUUCAGCAAUAUUACGGGUC	-3.24 ± 0.26	-2.14 ± 0.2
UUUCAGCAAUAUUACGGUAC	-1.9 ± 0.41	-2.1 ± 0.26
UUUCAGCAAUAUUACGGUGA	-0.66 ± 0.056	-0.395 ± 0.064
UUUCAGCAAUAUUACGUACG	-0.905 ± 0.12	-0.18 ± 0.11
UUUCAGCAAUAUUACGUCUC	-3.39 ± 0.4	-0.735 ± 0.17
UUUCAGCAAUAUUACGUGGC	-2.68 ± 0.15	-2.94 ± 0.22
UUUCAGCAAUAUUACGUGGG	-2.4 ± 0.14	-1.95 ± 0.12
UUUCAGCAAUAUUACGUUAG	-1.31 ± 0.11	-0.474 ± 0.12
UUUGAGCAAUAUUACGAACU	-3.36 ± 0.28	-2.77 ± 0.31
UUUGAGCAAUAUUACGACCG		-1.19 ± 0.4

Sequence	self-splicing fitness (ln) (30 °C)	self-splicing fitness (ln) (37 °C)
UUUGAGCAAUAUUACGAUAA	-1.25 ± 0.087	-0.386 ± 0.095
UUUGAGCAAUAUUACGAUUG	-3.75 ± 0.47	-2.41 ± 0.31
UUUGAGCAAUAUUACGCAAC		-1.71 ± 0.26
UUUGAGCAAUAUUACGCGAU		-2.19 ± 0.4
UUUGAGCAAUAUUACGCGGU	-2.67 ± 0.28	-2.37 ± 0.35
UUUGAGCAAUAUUACGCGUU	-2.4 ± 0.18	-2.86 ± 0.42
UUUGAGCAAUAUUACGCUGG	-2.04 ± 0.11	-2.01 ± 0.14
UUUGAGCAAUAUUACGCUUG	-3.52 ± 0.37	-1.63 ± 0.4
UUUGAGCAAUAUUACGGCCG	-2.02 ± 0.35	
UUUGAGCAAUAUUACGGUAA	-2.38 ± 0.29	-1.94 ± 0.25
UUUGAGCAAUAUUACGGUUG	-1.79 ± 0.2	-0.702 ± 0.36
UUUGAGCAAUAUUACGUAAC	-2.01 ± 0.5	
UUUGAGCAAUAUUACGUGUC	-4.05 ± 0.42	-2.79 ± 0.27
UUUGAGCAAUAUUACGUGUU	-2.61 ± 0.32	-3.3 ± 0.33
UUUGAGCAAUAUUACGUUUC		-2.62 ± 0.35
UUUUAGCAAUAUUACGAAGU	-3.02 ± 0.35	-1.65 ± 0.46
UUUUAGCAAUAUUACGAGAA	-0.897 ± 0.48	-0.946 ± 0.19
UUUUAGCAAUAUUACGAGCG	-1.02 ± 0.11	-1.33 ± 0.1
UUUUAGCAAUAUUACGAUGC		-2.46 ± 0.38
UUUUAGCAAUAUUACGCAGA	-0.713 ± 0.21	-0.506 ± 0.16
UUUUAGCAAUAUUACGCGAG	-1.15 ± 0.077	-0.226 ± 0.097
UUUUAGCAAUAUUACGCGAU	-3.02 ± 0.34	-1.97 ± 0.27
UUUUAGCAAUAUUACGGAGA	-1.93 ± 0.35	-1.62 ± 0.27
